Measurements from the supplement of paper PMC6757056.
± gives the standard deviation of the averaged measurements.

B1: library; a variant is named by its letters at N, in order (parent)
chain: GCUGUCACCGGAAUACCAGCAUCGUCUUGAUGCCCUUGGAAGUCCGGUCUGAUGAGUCCNNNNNGGACGAAACAGC

Assays:
theophylline [1] = variants of: B1; experiment: FACS-Seq fitted mean relative fluorescence mCherry/BFP without ligand (log10 relative fluorescence); higher = higher reporter protein expression; conditions: HEK293T, ligand present: no
Method in brief: (§1)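 After lentiviral transduction, HEK293T library cells bearing an mCherry ribozyme-switch reporter and an EF1α-BFP marker were enriched. They were then held for 48 h with or without ligand and sorted by mCherry/BFP into 6 bins, and each bin's genomic DNA was PCR-amplified, barcoded and MiSeq-sequenced. Fluorescence is expressed as a normalized fitted mean: the normal mean of log10(mCherry/BFP) bin counts, scaled to five spiked-in control ribozymes.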

theophylline [2] = variants of: B1; experiment: normalized RNA/DNA level with ligand (relative to sTRSVctl = 100) (log10 (% of sTRSVctl)); higher = less ribozyme self-cleavage, higher mRNA level; conditions: ligand concentration (+) RNA-Seq: 5 mM, HEK293T, reporter: mCherry (pCS4076), ligand present: yes
Method in brief: (§2)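 Only sequences with at least 100 DNA reads were analyzed, from HEK293T cells transfected with 4 µg per 6-well well of ribozyme switch library plasmids 72 h before RNA extraction with EDTA. Any ligand was added 1 h before transfection. RNA level was defined as RNA over DNA reads, normalized to a spiked-in non-cleaving sequence or to the top sequences, then scaled and log-transformed. The top set was 25 sequences, and the scaling was ×100 followed by log10.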

theophylline [3] = variants of: B1; experiment: normalized RNA/DNA level without ligand (relative to sTRSVctl = 100) (log10 (% of sTRSVctl)); higher = less ribozyme self-cleavage, higher mRNA level; conditions: HEK293T, reporter: mCherry (pCS4076), ligand present: no
Method in brief: as §2

theophylline [4] = variants of: B1; experiment: FACS-Seq fitted mean relative fluorescence mCherry/BFP with ligand (log10 relative fluorescence); ligand concentration (+) FACS-Seq: 1 mM; higher = higher reporter protein expression; conditions: HEK293T, ligand present: yes
Method in brief: as §1

Variant | FACS-Seq fitted mean (log10) (theophylline [1]) | normalized RNA/DNA level with ligand (log10) (theophylline [2]) | normalized RNA/DNA level without ligand (log10) (theophylline [3]) | FACS-Seq fitted mean (log10) (theophylline [4])
GCCCU | 1.072 ± 0.0027 | 1.97 ± 0.025 | 1.98 ± 0.057 | 0.918 ± 0.027
GCAGU | -0.266 ± 0.054 | 1.97 ± 0.12 | 1.774 ± 0.0085 | -0.0491 ± 0.075
GCAGA | 0.899 ± 0.2 | 2.04 ± 0.03 | 1.66 ± 0.083 | 0.875 ± 0.14
ACAUU | 1.04 ± 0.16 | 2 ± 0.036 | 1.85 ± 0.042 | 1.15 ± 0.18
ACAUC | 0.595 ± 0.053 | 2 ± 0.098 | 1.94 ± 0.03 | 0.599 ± 0.055
ACAUA | 0.248 ± 0.061 | 1.94 ± 0.1 | 1.72 ± 0.045 | 0.427 ± 0.032
ACAUG | 0.862 ± 0.2 | 1.913 ± 0.0094 | 1.81 ± 0.02 | 1.01 ± 0.017
ACAGC | 1 ± 0.1 | 1.97 ± 0.018 | 1.95 ± 0.053 | 0.971 ± 0.05
ACAGG | 0.315 ± 0.055 | 2 ± 0.057 | 1.78 ± 0.045 | 0.357 ± 0.0097
ACAGU | 0.512 ± 0.024 | 1.94 ± 0.057 | 1.65 ± 0.095 | 0.73 ± 0.011
ACAGA | 0.413 ± 0.11 | 1.96 ± 0.064 | 1.54 ± 0.035 | 0.638 ± 0.062
GAUCU | 0.704 ± 0.15 | 1.98 ± 0.055 | 1.85 ± 0.03 | 0.81 ± 0.17
CCGAA | -0.229 ± 0.1 | 1.93 ± 0.06 | 1.4 ± 0.089 | 0.178 ± 0.11
CCGAC | 0.958 ± 0.04 | 1.94 ± 0.04 | 1.91 ± 0.13 | 1.06 ± 0.043
CCGAU | 0.974 ± 0.065 | 2 ± 0.047 | 1.64 ± 0.11 | 1.06 ± 0.11
ACACA | 0.454 ± 0.049 | 1.94 ± 0.051 | 1.77 ± 0.036 | 0.653 ± 0.055
ACACC | 0.952 ± 0.087 | 1.99 ± 0.12 | 2 ± 0.022 | 1.11 ± 0.06
ACACG | 1.12 ± 0.1 | 1.93 ± 0.024 | 1.8 ± 0.026 | 1.2 ± 0.07
ACACU | 0.829 ± 0.042 | 2.04 ± 0.094 | 1.85 ± 0.14 | 0.802 ± 0.071
AAUGU | 0.7078 ± 0.0026 | 1.99 ± 0.056 | 1.77 ± 0.23 | 0.788 ± 0.011
AAUGG | 0.773 ± 0.076 | 2.06 ± 0.078 | 1.73 ± 0.094 | 0.962 ± 0.016
AAUGC | 0.537 ± 0.0095 | 2 ± 0.06 | 1.89 ± 0.025 | 0.692 ± 0.11
AAUGA | 0.467 ± 0.024 | 1.964 ± 0.0034 | 1.46 ± 0.08 | 0.691 ± 0.086
UAUGG | 0.926 ± 0.12 | 1.965 ± 0.014 | 1.86 ± 0.12 | 0.992 ± 0.017

Variant | FACS-Seq fitted mean (log10) (theophylline [1]) | normalized RNA/DNA level with ligand (log10) (theophylline [2]) | normalized RNA/DNA level without ligand (log10) (theophylline [3]) | FACS-Seq fitted mean (log10) (theophylline [4])
UAUGU | 0.685 ± 0.011 | 2.111 ± 0.021 | 1.97 ± 0.035 | 0.621 ± 0.026
UAUGC | 0.174 ± 0.099 | 2.02 ± 0.087 | 2 ± 0.11 | 0.278 ± 0.059
UAUGA | 0.56 ± 0.0061 | 1.92 ± 0.051 | 1.57 ± 0.064 | 0.686 ± 0.033
UAUCG | 1.02 ± 0.21 | 2.07 ± 0.028 | 2 ± 0.07 | 0.934 ± 0.064
CCAUU | 0.558 ± 0.021 | 1.983 ± 0.0031 | 1.75 ± 0.049 | 0.688 ± 0.011
CCAUA | 0.864 ± 0.14 | 1.95 ± 0.036 | 1.5 ± 0.14 | 1.06 ± 0.12
UCGCC | 1.03 ± 0.1 | 2 ± 0.095 | 1.872 ± 0.014 | 1.06 ± 0.095
UCGCA | 0.556 ± 0.006 | 1.96 ± 0.055 | 1.57 ± 0.12 | 0.806 ± 0.091
UCGCU | 0.4314 ± 0.00049 | 2.03 ± 0.11 | 1.891 ± 0.0058 | 0.533 ± 0.055
UCGAA | 0.342 ± 0.019 | 1.97 ± 0.055 | 1.48 ± 0.066 | 0.951 ± 0.086
UCGAU | 0.605 ± 0.16 | 2.087 ± 0.0041 | 1.78 ± 0.12 | 0.815 ± 0.057
UCGAC | 0.96 ± 0.048 | 1.9 ± 0.12 | 1.78 ± 0.059 | 0.965 ± 0.022
UCAAU | 0.686 ± 0.07 | 2 ± 0.028 | 1.83 ± 0.095 | 0.789 ± 0.093
UCAAC | 0.851 ± 0.1 | 1.89 ± 0.03 | 1.79 ± 0.049 | 0.879 ± 0.062
UCAAA | -0.0221 ± 0.095 | 1.97 ± 0.042 | 1.3 ± 0.091 | 0.459 ± 0.023
UCAAG | 0.7373 ± 0.0072 | 2.034 ± 0.0095 | 1.79 ± 0.16 | 0.974 ± 0.053
CCCUC | 0.893 ± 0.045 | 2.032 ± 0.012 | 2.11 ± 0.057 | 0.84 ± 0.019
CCCUU | 1.13 ± 0.16 | 1.99 ± 0.035 | 1.89 ± 0.049 | 1.07 ± 0.036
CCCUA | 0.768 ± 0.05 | 2.01 ± 0.077 | 1.872 ± 0.011 | 0.751 ± 0.022
ACAAG | 0.857 ± 0.14 | 1.99 ± 0.033 | 1.81 ± 0.12 | 0.8889 ± 0.0072
ACAAU | 0.476 ± 0.2 | 1.99 ± 0.077 | 1.75 ± 0.096 | 0.44 ± 0.037
ACAAC | 0.304 ± 0.051 | 1.97 ± 0.051 | 1.86 ± 0.038 | 0.206 ± 0.062
ACAAA | 0.425 ± 0.062 | 2 ± 0.045 | 1.44 ± 0.11 | 0.7048 ± 0.0042
CAUGA | 0.56151 ± 0.00013 | 2.03 ± 0.064 | 1.69 ± 0.1 | 0.619 ± 0.12

Variant | FACS-Seq fitted mean (log10) (theophylline [1]) | normalized RNA/DNA level with ligand (log10) (theophylline [2]) | normalized RNA/DNA level without ligand (log10) (theophylline [3]) | FACS-Seq fitted mean (log10) (theophylline [4])
CAUGU | 0.628 ± 0.042 | 1.98 ± 0.033 | 1.96 ± 0.052 | 0.704 ± 0.062
CAUGC | 0.705 ± 0.09 | 2.03 ± 0.085 | 1.98 ± 0.071 | 0.633 ± 0.01
CCGCA | 0.678 ± 0.047 | 2.08 ± 0.025 | 1.83 ± 0.043 | 0.764 ± 0.0084
CCGCC | 1.17 ± 0.096 | 2.0217 ± 0.0019 | 1.96 ± 0.033 | 1.18 ± 0.036
CCGCU | 0.291 ± 0.035 | 2.09 ± 0.012 | 1.81 ± 0.024 | 0.381 ± 0.0062
ACCGU | 0.885 ± 0.043 | 1.952 ± 0.0024 | 1.83 ± 0.039 | 0.856 ± 0.08
ACCGA | 0.6309 ± 0.0029 | 2.006 ± 0.015 | 1.77 ± 0.059 | 0.7685 ± 0.0034
ACCGG | 0.955 ± 0.0037 | 1.95 ± 0.021 | 1.94 ± 0.076 | 1.05 ± 0.12
ACCGC | 1.12 ± 0.047 | 2.06 ± 0.056 | 1.99 ± 0.03 | 1.1 ± 0.027
UCCCU | 0.877 ± 0.032 | 2.08 ± 0.12 | 1.97 ± 0.026 | 1.03 ± 0.11
UCCCC | 1.11 ± 0.13 | 2.005 ± 0.019 | 2.01 ± 0.053 | 1.06 ± 0.032
UCCCG | 1.07 ± 0.16 | 2.027 ± 0.0081 | 2.008 ± 0.0028 | 1.055 ± 0.0097
CCCGA | 0.977 ± 0.19 | 1.956 ± 0.018 | 1.93 ± 0.077 | 0.827 ± 0.058
CCCGU | 0.812 ± 0.08 | 1.91 ± 0.23 | 1.894 ± 0.014 | 0.82 ± 0.087
CCCGC | 1.3 ± 0.15 | 2.02 ± 0.021 | 2.088 ± 0.019 | 1.05 ± 0.028
UCCGA | 0.81 ± 0.1 | 2.12 ± 0.14 | 1.946 ± 0.0097 | 0.6689 ± 0.002
UCCGU | 0.694 ± 0.021 | 2.029 ± 0.013 | 2.03 ± 0.14 | 0.619 ± 0.023
UCCGG | 1.14 ± 0.16 | 1.97 ± 0.12 | 2.05 ± 0.077 | 1.02 ± 0.03
GCAAU | 1.11 ± 0.06 | 1.96 ± 0.017 | 1.78 ± 0.027 | 1.06 ± 0.046
GCAAC | 0.716 ± 0.09 | 1.93 ± 0.066 | 1.826 ± 0.0042 | 0.739 ± 0.094
GCAAG | 0.716 ± 0.087 | 1.97 ± 0.14 | 1.66 ± 0.062 | 0.9 ± 0.035
UCAUU | 0.822 ± 0.046 | 2.03 ± 0.045 | 1.815 ± 0.0057 | 0.906 ± 0.071
UCAUG | 0.358 ± 0.073 | 1.9 ± 0.12 | 1.89 ± 0.091 | 0.349 ± 0.033
